# Test results from US6475718.
# Biological target: orphan seven transmembrane domain receptor APJ (human) (UniProt P35414)
# Assay: cell-based or functional assay
# UniProt P35414, sequence (P35414 whole entry I109M/F110L, the tested form may be a part): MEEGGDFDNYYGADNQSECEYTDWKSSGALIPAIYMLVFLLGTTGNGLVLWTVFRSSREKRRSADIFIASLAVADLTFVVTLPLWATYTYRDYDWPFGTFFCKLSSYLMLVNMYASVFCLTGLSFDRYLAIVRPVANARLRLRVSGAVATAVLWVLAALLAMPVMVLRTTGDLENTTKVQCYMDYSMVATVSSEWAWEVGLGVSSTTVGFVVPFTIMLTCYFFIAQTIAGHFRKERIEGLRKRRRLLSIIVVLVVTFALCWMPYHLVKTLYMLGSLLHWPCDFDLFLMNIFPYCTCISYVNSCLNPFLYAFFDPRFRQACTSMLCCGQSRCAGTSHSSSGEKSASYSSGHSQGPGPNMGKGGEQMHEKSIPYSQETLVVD
substance,measurement,value
HIV-1 89.6 env protein (from UniProt Q73372 32-853),"cell-cell fusion (luciferase activity), QT6 target cells with CD4 and APJ (% of that observed with CXCR4)",> 70
